Target: the molecule itself
Test: cryo-EM structure

B1: human acyl-CoA:diacylglycerol acyltransferase 1 (DGAT1) (enzyme)
chain: MGDRGSSRRRRTGSRPSSHGGGGPAAAEEEVRDAAAGPDVGAAGDAPAPAPNKDGDAGVGSGHWELRCHRLQDSLFSSDSGFSNYRGILNWCVVMLILSNARLFLENLIKYGILVDPIQVVSLFLKDPYSWPAPCLVIAANVFAVAAFQVEKRLAVGALTEQAGLLLHVANLATILCFPAAVVLLVESITPVGSLLALMAHTILFLKLFSYRDVNSWCRRARAKAASAGKKASSAAAPHTVSYPDNLTYRDLYYFLFAPTLCYELNFPRSPRIRKRFLLRRILEMLFFTQLQVGLIQQWMVPTIQNSMKPFKDMDYSRIIERLLKLAVPNHLIWLIFFYWLFHSCLNAVAELMQFGDREFYRDWWNSESVTYFWQNWNIPVHKWCIRHFYKPMLRRGSSKWMARTGVFLASAFFHEYLVSVPLRMFRLWAFTGMMAQIPLAWFVGRFFQGNYGNAAVWLSLIIGQPIAVLMYVHDYYVLNYEAPAAEA
stoichiometry N: 2

— publication PMC7398557 (Nature, 2020)
